Measured values published in patent US20110243962A1 (GENEURO, published 2011).
Substitutions are numbered along the chain they refer to.

T1: MSRV complete ENV protein (ENV-T), recombinant from E. coli (MSRV (Multiple Sclerosis associated …))
T1 construct: also called ENV-T 7A; His-ENV-T
T1 chain: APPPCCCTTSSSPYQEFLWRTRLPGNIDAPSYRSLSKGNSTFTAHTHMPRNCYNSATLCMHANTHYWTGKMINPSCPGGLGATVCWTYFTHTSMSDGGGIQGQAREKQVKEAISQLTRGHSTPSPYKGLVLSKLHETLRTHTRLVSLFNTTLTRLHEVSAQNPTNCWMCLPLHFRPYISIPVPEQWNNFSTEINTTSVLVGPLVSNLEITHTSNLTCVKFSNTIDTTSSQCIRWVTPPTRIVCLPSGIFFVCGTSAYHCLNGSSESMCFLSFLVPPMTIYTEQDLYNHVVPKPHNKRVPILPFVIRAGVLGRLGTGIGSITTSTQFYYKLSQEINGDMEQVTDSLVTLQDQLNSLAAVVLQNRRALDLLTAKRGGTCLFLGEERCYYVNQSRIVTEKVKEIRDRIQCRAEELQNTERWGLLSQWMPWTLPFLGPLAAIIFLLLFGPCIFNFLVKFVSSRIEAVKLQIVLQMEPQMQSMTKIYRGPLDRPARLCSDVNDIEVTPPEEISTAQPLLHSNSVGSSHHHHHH

B1: GNbAC1 murine monoclonal antibody (IgG1/kappa) (antibody, V domains shown)
VH: QVQLQQSGAELVRPGAPVTLSCKASGYTFTDYEMHWVKQTPVHGLEWIGAVAPETGGTAYNQKFKGKATLTAAKSSSTAYMELRSLTSEDSAVYYCTSTVVPFAYWGQGTLVTVSA
VL: QIVLTQSPAIMSASPGEKVTISCSASSSVSYMYWYQQKPGSSPKAWIYRTSNLASGVPGRFSGSGSGTSYSLTISSMEAEDAATYYCQQYQSLPLTFGSGTKLEIK
notes: Murine IgG1/kappa from hybridoma; also called murine IgG1; muIgG
B2: Chimeric GNb AC1 IgG4 (human IgG4 constant regions with murine VH and VL) (antibody, V domains shown)
VH: B1 VH with P17S
VL: QIVLTQSPAIMSASPGEKVTISCSASSSVSYMYWYQQKPGSSPKAWIYRTSNLASGVPGRFSGSGSGTSYSLTISSMEAEDAATYYCQQYQSLPLTFGSGTKLEIKR
notes: also called GNbAC1 chimeric IgG4; GNbAC1-IgC4
B3: Chimeric GNb AC1 IgG1 (human IgG1 constant regions with murine VH and VL) (antibody, V domains shown)
VH: B1 VH
VL: B1 VL
notes: Human IgG1 heavy constant region and human kappa constant region, made in CHO cells; also called GNbAC1 chimeric IgG1; Ligand in human IgG1

Target: T1, MSRV complete ENV protein (ENV-T), …
Experiment: ELISA; ENV-T 7A 1 ug/ml coated; mAb 0.5 ug/ml
Protocol: (§1) Protocol: Incubation 2 h at 37° C. […] Revelation is made by adding OPD substrate and reading optic density with a spectrophotometer after 30 min (Washing steps with PBS are performed between every step).

Point of comparison: B2, optic density 2.49 OD. Against it:
- B1 — lower, 1.85 OD
- B3 — higher, 2.54 OD

Target: T1, MSRV complete ENV protein (ENV-T), …
Experiment: ELISA; ENV-T 7A 1 ug/ml coated; mAb 0.25 ug/ml
Protocol: as §1

Point of comparison: B1, optic density 1.21 OD. Against it:
- B2 — higher, 2.17 OD
- B3 — higher, 2.64 OD

Target: T1, MSRV complete ENV protein (ENV-T), …
Experiment: ELISA; coated ENV-T 7A 0.25; ligand 1 microgram
Protocol: (§2) II-1d Direct ELISA on Microplates Coated with ENV Antigen (ENV-T or ENV-SU as Described Above) [0159] Microwells were coated with 100 μl per well of ENV antigen diluted in 50 mM Sodium Bicarbonate, pH 9.6. Plate were sealed and incubated 2 hours at 37° C. under light agitation. [0160] Microwells were washed 4 times with 250 μl per well of PBS (Phosphate Buffer Saline). After the last, plates were inverted and blotted on absorbent paper to remove any residual buffer. [0161] 100 μl per well of detection antibody according to the present invention (GNbAC1 or its Fab fragment) diluted in PBS+BSA 1% (PBS with 1% of Bovine Serum Albumin) were added. Plate were sealed and incubated 1 hour at room temperature under light agitation. […] Microwells were washed 4 times with 250 μl per well of PBS. After the last, plates were inverted and blotted on absorbent paper to remove any residual buffer. [0163] […] Plate were sealed and incubated 1 hour at room temperature under light agitation. [0164] Microwells were washed 6 times with 250 μl per well of PBS. After the last, plates were inverted and blotted on absorbent paper to remove any residual buffer. [0165] 100 μl par well of Substrate Solution (1 tablet of o-Phenylenediamine (OPD) diluted in 10 ml of 0.05M Phosphate Citrate Buffer pH5+10 μl H2O2 30%, prepared at the last moment) were added. Plates were incubated 30 min at room temperature in the dark. […] 50 μl per well of Stop Solution 2N H2SO₄ were added. [0167] The absorbance was read at 490 nm within 30 minutes of stopping reaction.
(§3) Env-T antigen is coated onto microtiter ELISA plate wells with serial dilutions ranging from 1 μg/ml to about 0.01 μg/ml.

Point of comparison: B2, optical density 2.52 OD. Against it:
- B1 — higher, 2.84 OD
- B3 — higher, 2.89 OD

Target: T1, MSRV complete ENV protein (ENV-T), …
Experiment: ELISA; ENV 0.0156 ug/ml coated; mAb 1 ug/ml
Protocol: as §1

Point of comparison: B3, optic density 0.888 OD. Against it:
- B1 — lower, 0.186 OD
- B2 — lower, 0.71 OD

Target: T1, MSRV complete ENV protein (ENV-T), …
Experiment: ELISA; coated ENV-T 7A 0.5; ligand 1 microgram
Protocol: as §2, §3

Point of comparison: B2, optical density 2.89 OD. Against it:
- B1 — higher, 2.9 OD
- B3 — higher, 3 OD

Target: T1, MSRV complete ENV protein (ENV-T), …
Experiment: ELISA; ENV 1 ug/ml coated; mAb 1 ug/ml
Protocol: as §1

Point of comparison: B2, optic density 2.67 OD. Against it:
- B1 — lower, 2.22 OD
- B3 — lower, 2.52 OD

Target: T1, MSRV complete ENV protein (ENV-T), …
Experiment: ELISA; coated ENV-T 7A 0.0156; ligand 1 microgram
Protocol: as §2, §3

Point of comparison: B2, optical density 1.02 OD. Against it:
- B1 — higher, 1.3 OD
- B3 — higher, 1.26 OD

Target: T1, MSRV complete ENV protein (ENV-T), …
Experiment: ELISA; ENV 0.0625 ug/ml coated; mAb 1 ug/ml
Protocol: as §1

Point of comparison: B2, optic density 1.55 OD. Against it:
- B1 — lower, 0.837 OD
- B3 — higher, 1.85 OD

Target: T1, MSRV complete ENV protein (ENV-T), …
Experiment: ELISA; ENV-T 7A 1 ug/ml coated; mAb concentration cell blank (top of series)
Protocol: as §1

Point of comparison: B2, optic density 2.38 OD. Against it:
- B1 — lower, 2 OD
- B3 — higher, 2.54 OD

Target: T1, MSRV complete ENV protein (ENV-T), …
Experiment: ELISA; coated ENV-T 7A 0.125; ligand 1 microgram
Protocol: as §2, §3

Point of comparison: B1, optical density 2.29 OD. Against it:
- B2 — lower, 1.99 OD
- B3 — higher, 2.39 OD

Target: T1, MSRV complete ENV protein (ENV-T), …
Experiment: ELISA; ENV 0.5 ug/ml coated; mAb 1 ug/ml
Protocol: as §1

Point of comparison: B2, optic density 2.26 OD. Against it:
- B1 — lower, 1.87 OD
- B3 — higher, 2.53 OD

Target: T1, MSRV complete ENV protein (ENV-T), …
Experiment: ELISA; ENV 0.03125 ug/ml coated; mAb 1 ug/ml
Protocol: as §1

Point of comparison: B3, optic density 1.6 OD. Against it:
- B1 — lower, 0.367 OD
- B2 — lower, 1.09 OD

Target: T1, MSRV complete ENV protein (ENV-T), …
Experiment: ELISA; ENV-T 7A 1 ug/ml coated; mAb 0.0625 ug/ml
Protocol: as §1

Point of comparison: B3, optic density 2.51 OD. Against it:
- B1 — lower, 0.585 OD
- B2 — lower, 1.66 OD

Target: T1, MSRV complete ENV protein (ENV-T), …
Experiment: ELISA; ENV-T 7A 1 ug/ml coated; mAb 0.0156 ug/ml
Protocol: as §1

Point of comparison: B1, optic density 0.166 OD. Against it:
- B2 — higher, 0.777 OD
- B3 — higher, 1.27 OD

Target: T1, MSRV complete ENV protein (ENV-T), …
Experiment: ELISA; ENV-T 7A 1 ug/ml coated; mAb 0.125 ug/ml
Protocol: as §1

Point of comparison: B2, optic density 1.81 OD. Against it:
- B1 — lower, 0.945 OD
- B3 — higher, 2.44 OD
